# Assay results published in publication PMC6426935.
# Assays:
# [1] = molecular target: recombinant Der f 21 with N-terminal 6x-His-tag (Dermatophagoides farinae) (UniProt B2GM84); assay: SEC-MALS; Superdex S75 increase, 20 mM Tris pH 7.9, 50 mM NaCl; 100 uL loaded at 5 mg/mL
# [2] = molecular target: recombinant Der f 21 with the His-tag cleaved (Dermatophagoides farinae) (UniProt B2GM84); assay: static light scattering; crDer f 21 at 0.25, 1.00 and 1.50 mg/mL
stoichiometry N [1],stoichiometry N [2],Substance
2,,recombinant Der f 21 with N-terminal 6x-His-tag (from UniProt B2GM84 25-136) (natural protein)
,2,recombinant Der f 21 with the His-tag cleaved (from UniProt B2GM84 25-136) (natural protein)
